Measurements reported in patent US20110093964A1 (COMMISSARIAT A L ENERGIE ATOMIQUE, published 2011).

Target: native bovine brain calmodulin (bovine, UniProt P62157 2-149)
Assay: tryptophan fluorescence of 5 uM MLCKp (excitation 280 nm) in 10 mM MES pH 6.5, one equivalent of calmodulin, no metals

B1: MLCKp peptide, 17 residues, derived from the calmodulin-binding domain of a rabbit muscle myosin light chain kinase (CALBIOCHEM) (peptide)
peptide: Ac-RRKWQKTGHAVRAIGRL-NH2
notes: Its tryptophan is the fluorescent probe of the assay; also called calmodulin ligand peptide; the ligand
  binding result: binds
